Measurements reported in patent US11279751B2.

B1: WS1 binder of SEQ ID NO: 48 (designed binder)
chain: MASTSGVSDVPRDLEVVAATPTSLLISWDAPAVPVSKYVIYYWPGALISSMQAFKVPGSKSTATISGLKPGVLYSIVVDALTGDGQGSYVWDPITITYRTEGSGS
B2: WS1 binder of SEQ ID NO: 49 (designed binder)
chain: MASTSGVSDVPRDLEVVAATPTSLLISWDAPAVTVHSYYITYQELQHHSVPQGFQVPGSKSTATISGLKPGVAYQIAVYAFTGPGLPPSDAPPIVIYYRTEGSGS
B3: Adnectin-7 (designed binder)
chain: MGVSDVPRDLEVVTATPTSLLISWDGPKYYVKYYRITYGETGGNSPVQEFTVPRTDHTATISGLKPGVDYTITVYAVKGQYGPYYGSRPISINYRTEIDKPSQHHHHHH
B4: Adnectin-1 (designed binder)
chain: MASTSGSTHYYKGTADLEVVAATPTSLLISWPPPYYVEGVTVFRITYGETGGNSPVQEFTVPYWTETATISGLKPGVDYTITVYAEMYPGSPWAGQVMDIQPISINYRTEGSGSHHHHHH
B5: Adnectin-6 (designed binder)
chain: MGVSDVPRDLEVVAATPTSLLISWSRPKGSIKYYRITYGETGGNSPVQEFTVPNSQYTATISGLKPGVDYTITVYAVYGYPYQEPHYYPISINYRTEIDKPSQHHHHHH
B6: Adnectin-3 (designed binder)
chain: MASTSGVSDVPRDLEVVAATPTSLLISWDAPAVPVSKYVIYYWPGALISSMQAFKVPGSKSTATISGLKPGVLYSIVVDALTGDGQGSYVWDPITITYRTEGSGSHHHHHH
B7: Adnectin-5 (designed binder)
chain: MGVSDVPRDLEVVAATPTSLLISWKYPYETISYYRITYGETGGNSPVQEFTVPYYRSTATISGLKPGVDYTITVYAVEASAPYSDGGSPISINYRTEIDKPSQHHHHHH
B8: Adnectin-4 (designed binder)
chain: MASTSGVSDVPRDLEVVAATPTSLLISWDAPAVTVHSYYITYQELQHHSVPQGFQVPGSKSTATISGLKPGVAYQIAVYAFTGPGLPPSDAPPIVIYYRTEGSGSHHHHHH
B9: Adnectin-8 (designed binder)
chain: MGVSDVPRDLEVVAATPTSLLISWSQPGRYVKYYRITYGETGGNSPVQEFTVPNDTYTATISGLKPGVDYTITVYAVYGKYGPYYGYDPISINYRTEIDKPSQHHHHHH
B10: Adnectin-2 (designed binder)
chain: MASTSGVSDVPRDLEVVAATPTSLLISWDAPAVTVNNYRITYQPLLQGSSIQHFDVPGSKSTATISGLKPGVGYQITVYASTYTHSKAYYSLPISIYYRTEGSGSHHHHHH

target: T1, human PXR-GST (Invitrogen) (human) (UniProt O75469); experiment: Biacore, binder at 0.5-2 µM over GST-PXR captured by anti-GST antibody
T1 sequence: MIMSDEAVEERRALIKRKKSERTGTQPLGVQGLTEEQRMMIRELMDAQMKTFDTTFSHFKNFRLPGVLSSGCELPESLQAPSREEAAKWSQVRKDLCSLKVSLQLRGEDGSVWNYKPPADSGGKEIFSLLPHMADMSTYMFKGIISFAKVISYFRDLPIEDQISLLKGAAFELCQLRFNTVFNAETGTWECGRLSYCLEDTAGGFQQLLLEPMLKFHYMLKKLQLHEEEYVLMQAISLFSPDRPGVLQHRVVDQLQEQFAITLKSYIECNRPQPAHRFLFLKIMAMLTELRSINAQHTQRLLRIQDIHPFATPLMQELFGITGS

| RU bound [RU] | Binder |
| --- | --- |
| 146 | B1 |
| 81 | B2 |

target: T1, human PXR-GST (Invitrogen) (human); experiment: SPR (Biacore T100), Adnectin series over human PXR-GST captured by anti-GST antibody

| Kd [nM] | koff [s⁻¹] | kon [M⁻¹ s⁻¹] | Binder |
| --- | --- | --- | --- |
| 0.31 | 8.82e-05 | 288000 | B3 |
| 11.4 | 0.00119 | 104000 | B4 |
| 1.9 | 0.00126 | 680000 | B5 |
| 2.5 | 0.000378 | 16200 | B6 |
| 5.4 | 0.0027 | 509000 | B7 |
| 7.8 | 0.000168 | 21500 | B8 |
| 4.4 | 0.000182 | 41700 | B9 |
| 97.8 | 0.00458 | 162000 | B10 |
